B1: H6 flagella (polymeric FliC flagellin) of E. coli O127:H6 (natural protein)
chain: MAQVINTNSLSLITQNNINKNQSALSSSIERLSSGLRINSAKDDAAGQAIANRFTSNIKGLTQAARNANDGISVAQTTEGALSEINNNLQRIRELTVQASTGTNSDSDLDSIQDEIKSRLDEIDRVSGQTQFNGVNVLAKDGSMKIQVGANDGQTITIDLKKIDSDTLGLNGFNVNGKGETANTAATLKDMSGFTAAAAPGGTVGVTQYTDKSAVASSVDILNAVAGADGNKVTTSADVGFGTPAAAVTYTYNKDTNSYSAASDDISSANLAAFLNPQARDTTKATVTIGGKDQDVNIDKSGNLTAADDGAVLYMDATGNLTKNNAGGDTQATLAKVATATGAKAATIQTDKGTFTSDGTAFDGASMSIDANTFANAVKNDTYTATVGAKTYSVTTGSAAADTAYMSNGVLSDTPPTYYAQADGSITTTEDAAAGKLVYKGSDGKLTTDTTSKAESTSDPLAALDDAISQIDKFRSSLGAVQNRLDSAVTNLNNTTTNLSEAQSRIQDADYATEVSNMSKAQIIQQAGNSVLAKANQVPQQVLSLLQG
B2: recombinant human galectin-4 (natural protein, UniProt P56470 1-323, looked up)
chain: MAYVPAPGYQPTYNPTLPYYQPIPGGLNVGMSVYIQGVASEHMKRFFVNFVVGQDPGSDVAFHFNPRFDGWDKVVFNTLQGGKWGSEERKRSMPFKKGAAFELVFIVLAEHYKVVVNGNPFYEYGHRLPLQMVTHLQVDGDLQLQSINFIGGQPLRPQGPPMMPPYPGPGHCHQQLNSLPTMEGPPTFNPPVPYFGRLQGGLTARRTIIIKGYVPPTGKSFAINFKVGSSGDIALHINPRMGNGTVVRNSLLNGSWGSEEKKITHNPFGPGQFFDLSIRCGLDRFKVYANGQHLFDFAHRLSAFQRVDTLEIQGDVTLSYVQI
notes: also called GAL4

Tests used:
[1] = molecular target: the molecule itself; assay: SEC
[2] = molecular target: B1; assay: ELISA; conditions: both partners purified

B1: binds [1].

B2: binds [2].

— article PMC7660914 (Microbiology, 2020)
